{"source": "paper PMC3150277", "about": "“Crystal Structure of PrgI-SipD: Insight into a Secretion Competent State of the Type Three Secretion System Needle Tip and its Interaction with Host Ligands” (PLoS Pathogens, 2011)", "biological_target": "T1, SipD 127-343, as it stands in the PrgI-SipDΔD1 fusion protein (S. enterica serovar typhimurium strain …, UniProt Q56026 127-343)", "T1 construct": "SipD of S. enterica serovar typhimurium strain SL1344, amino acids 127 to 343; In the crystal it is joined on one chain, C-terminal of PrgI and the linker Gly-Gly-Ser-Gly-Gly; also called SipDΔD1 (in the fusion); source: E. coli BL21(DE3), purified as part of the PrgI-SipDΔD1 fusion protein", "T1 sequence": "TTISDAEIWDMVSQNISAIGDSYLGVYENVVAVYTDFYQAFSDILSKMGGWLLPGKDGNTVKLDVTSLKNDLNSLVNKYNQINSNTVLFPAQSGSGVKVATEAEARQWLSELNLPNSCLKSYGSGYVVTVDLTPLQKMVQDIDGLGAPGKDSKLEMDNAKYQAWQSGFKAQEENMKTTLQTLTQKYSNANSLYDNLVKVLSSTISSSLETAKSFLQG", "assay": "crystal structure; PrgI-SipDΔD1 fusion protein, X-ray, 2.4 Å apo and 2.19 Å soaked with deoxycholate; two copies in the asymmetric unit", "conditions": "both partners purified"}
{"binder": "PrgI, wildtype, as it stands in the PrgI-SipDΔD1 fusion protein (natural protein, wildtype PrgI of S. enterica serovar typhimurium strain SL1344; In the crystal it is joined on one chain through Gly-Gly-Ser-Gly-Gly to SipD 127-343; also called needle subunit PrgI; source: E. coli BL21(DE3), purified as part of the PrgI-SipDΔD1 fusion protein; not shown: His-tag, N-terminal, cleaved) MATPWSGYLDDVSAKFDTGVDNLQTQVTEALDKLAAKPSDPALLAAYQSKLSEYNLYRNAQSNTVKVFKDIDAAIIQNFR", "values": [{"measurement": "binding result", "value": "binds"}]}
